Source: PMC10844748

Target: S. cerevisiae translation elongation factor 1A (eEF1A), TEF1-encoded, purified from a ΔEFM4 strain (S. cerevisiae) (UniProt P02994)
UniProt P02994, sequence (P02994 whole entry, stated change not applied): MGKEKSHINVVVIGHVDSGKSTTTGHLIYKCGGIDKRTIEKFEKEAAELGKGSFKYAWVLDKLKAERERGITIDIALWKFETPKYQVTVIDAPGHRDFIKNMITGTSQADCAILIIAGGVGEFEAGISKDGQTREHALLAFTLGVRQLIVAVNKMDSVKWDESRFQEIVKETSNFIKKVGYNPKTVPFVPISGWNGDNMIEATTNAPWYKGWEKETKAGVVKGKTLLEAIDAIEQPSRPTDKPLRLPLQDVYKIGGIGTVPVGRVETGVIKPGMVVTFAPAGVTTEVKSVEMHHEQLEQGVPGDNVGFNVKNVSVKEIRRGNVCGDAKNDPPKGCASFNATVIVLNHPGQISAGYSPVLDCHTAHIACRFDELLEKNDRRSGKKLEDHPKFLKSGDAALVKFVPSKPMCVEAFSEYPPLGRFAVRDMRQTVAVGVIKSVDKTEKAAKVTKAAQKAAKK

B1: Efm4 F210A/F212A double mutant (enzyme)
chain: FRRNPQDTGDCWFSDSDAEQKMIDFLVDNIGAYRISENASVVDLGTGNGHMLFELHQTEFQGKLVGIDYSEESVKLASNIAEATGVDNFISFQQADIFSGDWKPGKYDIVLDKGTLDAISLSGMKINGKLDVVDVYAGVVERILKKDGIFLITSCNFTQDELVKIIETDNLKMWKTIKYPVAQAGGVQGATICSVAFVKQN
  in vitro methylation of eEF1A K316 (Efm4 3 μM, eEF1A 2 μM, AdoMet, 30 min, 30 °C; LC-MS/MS): < 20%
